Assay results from article PMC10786891, “Massively parallel profiling of RNA-targeting CRISPR-Cas13d”.
Changes are numbered by the printed parent chain. Names and notes keep the numbering of the source.

B1: target 3 U2A,A12G (mixed)
RNA 1: CACCCGUGCAAAAUUGCAGGGGUCUAAAACGACCUGAAUAUUUCAGAUCAAA
RNA 2: GGGAAUGGAUCCACAUCUACGAAUUCGUUUUUGAUCUGAGAUAUUCAGGACUGCAGAUCGGAAGAGCACACGU
B2: target 3 G3U (mixed)
RNA 1: B1 RNA 1
RNA 2: B1 RNA 2 with G40A, G49U, A50U
B3: target 3 G19A,U20G (mixed)
RNA 1: B1 RNA 1
RNA 2: B1 RNA 2 with U32G, G33A, G40A, A50U
B4: target 3 C1A,U7A (mixed)
RNA 1: B1 RNA 1
RNA 2: B1 RNA 2 with G40A, U45A, A50U, C51A
B5: target 3 del5 (mixed)
RNA 1: B1 RNA 1
RNA 2: GGGAAUGGAUCCACAUCUACGAAUUCGUUUUUGAUCUGAAAUAUUCGGUCUGCAGAUCGGAAGAGCACACGU
B6: target 3 insG 3' of 11,insU 3' of 4 (mixed)
RNA 1: B1 RNA 1
RNA 2: GGGAAUGGAUCCACAUCUACGAAUUCGUUUUUGAUCUGAAAGUAUUCAGUGUCUGCAGAUCGGAAGAGCACACGU
B7: target 3 insU 3' of 22,insA 3' of 21 (mixed)
RNA 1: B1 RNA 1
RNA 2: GGGAAUGGAUCCACAUCUACGAAUUCGUUUUUAUGAUCUGAAAUAUUCAGGUCUGCAGAUCGGAAGAGCACACGU
B8: target 3 insU 3' of 22,insU 3' of 22 (mixed)
RNA 1: B1 RNA 1
RNA 2: B7 RNA 2 with A33U
B9: target 3 insG 3' of 16,insA 3' of 2 (mixed)
RNA 1: B1 RNA 1
RNA 2: B6 RNA 2 with U37G, G38U, A39G, G42A, U50G, G51U, U52A
B10: target 3 G4U,U7A (mixed)
RNA 1: B1 RNA 1
RNA 2: B1 RNA 2 with G40A, U45A, G48U, A50U
B11: target 3 insA 3' of 8,insC 3' of 4 (mixed)
RNA 1: B1 RNA 1
RNA 2: B6 RNA 2 with G42U, U43A, A44U, U45A, U50C
B12: target 3 MT (mixed)
RNA 1: B1 RNA 1
RNA 2: B1 RNA 2 with G40A, A50U
B13: target 3 insG 3' of 8,insG 3' of 7 (mixed)
RNA 1: B1 RNA 1
RNA 2: B6 RNA 2 with G42U, U43A, A44U, U45G, C47G, A48C, G49A, U50G
B14: target 3 insC 3' of 7,insC 3' of 5 (mixed)
RNA 1: B1 RNA 1
RNA 2: B6 RNA 2 with G42U, U43A, A44U, U46C, G49C, U50G
B15: target 3 insG 3' of 9,insG 3' of 5 (mixed)
RNA 1: B1 RNA 1
RNA 2: B6 RNA 2 with G42U, U43A, A44G, U50G
B16: target 3 C1U,A12G (mixed)
RNA 1: B1 RNA 1
RNA 2: B1 RNA 2 with A50U, C51U
B17: target 3 C1U,G3U (mixed)
RNA 1: B1 RNA 1
RNA 2: B1 RNA 2 with G40A, G49U, A50U, C51U
B18: target 3 insG 3' of 6,insC 3' of 5 (mixed)
RNA 1: B1 RNA 1
RNA 2: B6 RNA 2 with G42U, U43A, A44U, U46C, C47G, G49C, U50G
B19: target 3 insA 3' of 17,insA 3' of 15 (mixed)
RNA 1: B1 RNA 1
RNA 2: B7 RNA 2 with A33G, U34A, G35U, U37C, C38U, U39A
B20: target 3 C6U,A11C (mixed)
RNA 1: B1 RNA 1
RNA 2: B1 RNA 2 with G40A, A41C, C46U, A50U
B21: target 3 insC 3' of 2,insU 3' of 1 (mixed)
RNA 1: B1 RNA 1
RNA 2: B6 RNA 2 with G42U, U43A, A44U, U46C, C47A, A48G, G51C, U52C, C53U
B22: target 3 insG 3' of 9,insA 3' of 7 (mixed)
RNA 1: B1 RNA 1
RNA 2: B6 RNA 2 with G42U, U43A, A44G, C47A, A48C, G49A, U50G
B23: target 3 C1U (mixed)
RNA 1: B1 RNA 1
RNA 2: B1 RNA 2 with G40A, A50U, C51U
B24: target 3 U2C,U7G (mixed)
RNA 1: B1 RNA 1
RNA 2: B1 RNA 2 with G40A, U45G, A50C
B25: target 3 C1A,G3U (mixed)
RNA 1: B1 RNA 1
RNA 2: B1 RNA 2 with G40A, G49U, A50U, C51A
B26: target 3 insA 3' of 22,insG 3' of 1 (mixed)
RNA 1: B1 RNA 1
RNA 2: GGGAAUGGAUCCACAUCUACGAAUUCGUUUAUUGAUCUGAAAUAUUCAGGUCGUGCAGAUCGGAAGAGCACACGU
B27: target 3 G4U,U8G (mixed)
RNA 1: B1 RNA 1
RNA 2: B1 RNA 2 with G40A, U44G, G48U, A50U
B28: target 3 G3U,G4C (mixed)
RNA 1: B1 RNA 1
RNA 2: B1 RNA 2 with G40A, G48C, G49U, A50U
B29: target 3 G4C,A12U (mixed)
RNA 1: B1 RNA 1
RNA 2: B1 RNA 2 with G40U, G48C, A50U
B30: target 3 G4C,U21A (mixed)
RNA 1: B1 RNA 1
RNA 2: B1 RNA 2 with U31A, G40A, G48C, A50U
B31: target 1 A20U,C21A (mixed)
RNA 1: CACCCGUGCAAAAAUGCAGGGGUCUAAAACUGAGCGGAUAACCUCUCUAUGG
RNA 2: GGGAAUGGAUCCACAUCUACGAAUUCGUACAUUAGAGAGGUUAUCCGCUCACCGAGAUCGGAAGAGCACACGU
B32: target 1 C2A,G13C (mixed)
RNA 1: B31 RNA 1
RNA 2: B31 RNA 2 with A31C, U32A, G39C, C50A
B33: target 1 insC 3' of 20 (mixed)
RNA 1: B31 RNA 1
RNA 2: GGGAAUGGAUCCACAUCUACGAAUUCGUACCACUAGAGAGGUUAUCCGCUCACCGAGAUCGGAAGAGCACACGU

Target: T1, EsCas13d, nuclease-dead (Eubacterium siraeum, UniProt B0MS50, R295A;H300A;R849A;H854A)
T1 sequence: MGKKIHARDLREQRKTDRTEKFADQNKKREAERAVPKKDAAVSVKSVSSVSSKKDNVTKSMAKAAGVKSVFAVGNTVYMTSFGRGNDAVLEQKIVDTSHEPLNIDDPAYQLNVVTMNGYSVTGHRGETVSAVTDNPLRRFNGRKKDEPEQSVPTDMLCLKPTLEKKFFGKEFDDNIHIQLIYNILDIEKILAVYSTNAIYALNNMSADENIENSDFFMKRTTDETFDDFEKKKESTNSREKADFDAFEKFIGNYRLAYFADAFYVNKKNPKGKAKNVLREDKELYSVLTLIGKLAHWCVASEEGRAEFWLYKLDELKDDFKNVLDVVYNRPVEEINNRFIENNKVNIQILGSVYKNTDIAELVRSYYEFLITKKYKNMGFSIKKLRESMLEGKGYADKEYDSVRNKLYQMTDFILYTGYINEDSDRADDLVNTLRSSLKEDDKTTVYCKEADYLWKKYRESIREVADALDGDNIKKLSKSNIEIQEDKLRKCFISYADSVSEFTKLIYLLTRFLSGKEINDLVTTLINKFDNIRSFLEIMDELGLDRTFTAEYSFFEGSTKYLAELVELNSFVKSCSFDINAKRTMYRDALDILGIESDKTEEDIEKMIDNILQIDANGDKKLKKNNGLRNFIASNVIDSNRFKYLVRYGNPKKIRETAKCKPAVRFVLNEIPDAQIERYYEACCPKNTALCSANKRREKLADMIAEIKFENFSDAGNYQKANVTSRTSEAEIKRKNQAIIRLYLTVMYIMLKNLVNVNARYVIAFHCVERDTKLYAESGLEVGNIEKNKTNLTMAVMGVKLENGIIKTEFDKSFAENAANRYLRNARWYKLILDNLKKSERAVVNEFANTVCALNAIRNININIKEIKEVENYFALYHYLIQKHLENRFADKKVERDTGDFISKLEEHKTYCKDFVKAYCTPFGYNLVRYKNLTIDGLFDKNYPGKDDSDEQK
Assay: crRNA (strand 1, pre-loaded); Mg2+; 40 mM Tris-HCl pH 7.5, 150 mM NaCl, 6 mM MgCl2, 1 mM DTT, 0.1% Tween-20, 0.2 mg/ml BSA; 25 C; 10 min per concentration, then washed
Settings: tags: His6-TwinStrep-SUMO cleaved; N-terminal SNAP kept (SNAP-Surface 488); label: 3' end held by stalled T7 RNA polymerase

Binder | Kd [nM]
B1 | 38 ± 6
B2 | 22.9 ± 2.2
B3 | 55 ± 8
B4 | 28.5 ± 14
B5 | 65.5 ± 12.5
B6 | 55.5 ± 10.5
B7 | 28 ± 4
B8 | 24.1 ± 3
B9 | 75 ± 30
B10 | 10.4 ± 1.4
B11 | 61.5 ± 9.5
B12 | 15.6 ± 0.185
B13 | 37.4 ± 3.15
B14 | 108 ± 18.5
B15 | 60 ± 13.5
B16 | 60 ± 13.5
B17 | 45.5 ± 11.5

Binder | Kd [nM]
B18 | 11.4 ± 1.1
B19 | 36.9 ± 8.1
B20 | 63 ± 17.6
B21 | 82.5 ± 27.5
B22 | 43.5 ± 5.5
B23 | 25.1 ± 3.15
B24 | 86 ± 33
B25 | ~75
B26 | 34.5 ± 7.5
B27 | 16.4 ± 2.35
B28 | 10.5 ± 1
B29 | 110 ± 45
B30 | 87 ± 16
B31 | 29 ± 5
B32 | 50 ± 5
B33 | 6.4 ± 0.4
